From patent US20230340090A1

T1: TP-24 peptide (human)
T1 sequence (peptide, biotinylated): REFFSQYGDVMDVFI

T2: TP-25 peptide (human)
T2 sequence (peptide, biotinylated): VMDVFIPKPFRAFAF


Assays:
TP-24 peptide (human) = target: T1, TP-24 peptide (human); assay: indirect ELISA, biotinylated 15-mer on streptavidin plate
TP-25 peptide (human) = target: T2, TP-25 peptide (human); assay: as above

| OD (O.D. (405 nm)) (TP-24 peptide (human)) | OD (O.D. (405 nm)) (TP-25 peptide (human)) | Binder |
| --- | --- | --- |
| 4 | 0.9 | ACI-7062-404D6-Ab2 (antibody, IgG3, V domains shown) VH: QVTLKESGPGILQPSQTLSLTCSFSGFSLSTYGIGVGWIRQPSGKGLEWLAHIWWNDYKYYNTALKSRLTISKDTSNNRVFLKIASVDTADTATYYCARVYGNLYYFDYWGQGTTLTVSS VL: DVLMTQTPLSLPVSLGDQASISCRSSQSIVHGSGNTYLEWYLQKPGQSPKLLIYKVSNRFSGVPDRFSGSGSGTDFTLRISRVEAEDLGVYYCFQGSHVPTFGAGTKLELKR |
| 2.9 | 0.9 | ACI-7062-416A11-Ab1 (antibody, IgG2a, V domains shown) VH: QVTLKESGPGILQSSQTLSLTCSFSGFSLSTYGIGVGWIRQPSGKGLEWLAHIWWNDNKYYNTALKSRLTISKDTSNNQVFLKIASVDTADAATYYCARVYGNLYYFGYWGQGTTLTVSS VL: DVLMTQTPLSLPVSLGDRASISCRSSQSIVHSSGNTYLEWYLQKPGQSPKLLIYKVSNRFSGVPDRFSGSGSGTDFTLKISRVEAEDLGVYYCFQGSRVPTFGAGTKLELKR |
| 3.8 | 1.2 | ACI-7062-415C4-Ab1 (antibody, IgG1, V domains shown) VH: QVTLKESGPGILQPSQTLSLTCSFSGFSLSTYGIGVGWIRQPSGKGLEWLAHIWWNDNKYYKTALKSRLTISKDTSNNQVFLKIASVDTADSATYYCARVYGNLYYFGYWGQGTTLTVSS VL: DVLMTQTPLSLPVSLGDQASISCRSSQSIVHSTGNTYLEWYLQKPGQSPKLLIYKVSNRFSGVPDRFSGSGSGTDFTLKISRVEAEDLGVYYCFQGSRVPTFGAGTKLELKR |
| 3.8 | 0.8 | ACI-7062-410H3-Ab1 (antibody, IgG1, V domains shown) VH: DVQLVESGGGLVQPGGSRRLSCAASGFTFSSFGMHWVRQAPEKGLEWVAYIRSGSDIIYYADSVKGRFTISRDNPENTLFLQMTSLRSEDTAMYYCARSGTTVPFDYWGQGTSLTVSS VL: DIVMTQSPSSLAMSVGQKVTMSCKSSQSLLNSGNQKNYLAWYQQKPGQSPELLLYFASTRASGVPDRFIGSGSGTDFTLTISSVQAEDLADYFCQQHYSIPLTFGAGTKLELKR |
| 3.2 | 1.2 | ACI-7062-412E12-Ab1 (antibody, IgG1, V domains shown) VH: DVQLVESGGGLVQPGGSRRLSCAASGFTFSRFGMHWVRQAPEKGLEWVAYIRSGSDIIYYADSVKGRFTISRDNPENTLFLQMTSLRSEDTAMYYCARSGTTVPFDYWGQGTSLTVSS VL: DIVMTQSPSSLAMSVGQKVTMSCKSSQSLLNSGDQKNYLAWYQQKPGQSPELLLYFASTRASGVPDRFIGSGSGTDFSLTISSVQAEDLADYFCQQHYSIPLTFGAGTKLELKR |
| 2.5 | 1 | ACI-7062-401A2-Ab2 (antibody, IgG1, V domains shown) VH: DVQLVESGGGLVQPGGSRRLSCAASGFTFSRFGMHWVRQAPEKGLEWVAYIRSGSDIIYYADSVKGRFTISRDNPENTLFLQMTSLRSEDTAMYYCARSGTTVPFDYWGQGTSLTVSS VL: DIVMTQSPSSLAMSVGQKVTMSCKSSQSLLNSGDQKNYLAWYQQKPGQSPELLLYFASTRASGVPDRFIGSGSGTDFSLTISSVQAEDLADYFCQQHYSIPLTFGAGTKLELKR |
| 4 | 1.4 | ACI-7062-412A7-Ab1 (antibody, IgG2b, V domains shown) VH: DVQLVESGGGLVQPGGSRRLSCAASGFTFSSFGMHWVRQAPEKGLEWVAYIRSGSDIIYYADSVKGRFTISRDNPENTLFLQMTSLRSEDTAMYYCARSGTTVPFDYWGQGTSLTVSS VL: DIVMTQSPSSLAMSVGQKVTMSCKSSQSLLNSGNQKNYLAWYQQKPGQSPELLLYFASTRASGVPDRFIGSGSGTDFTLTISSVQAEDLADYFCQQHYSIPLTFGAGTKLELKR |
